B1: Protein c-Fos (Mus musculus), P01101 (parent)
chain: MMFSGFNADYEASSSRCSSASPAGDSLSYYHSPADSFSSMGSPVNTQDFCADLSVSSANFIPTVTAISTSPDLQWLVQPTLVSSVAPSQTRAPHPYGLPTQSAGAYARAGMVKTVSGGRAQSIGRRGKVEQLSPEEEEKRRIRRERNKMAAAKCRNRRRELTDTLQAETDQLEDEKSALQTEIANLLKEKEKLEFILAAHRPACKIPDDLGFPEEMSVASLDLTGGLPEASTPESEEAFTLPLLNDPEPKPSLEPVKSISNVELKAEPFDDFLFPASSRPSGSETSRSVPDVDLSGSFYAADWEPLHSNSLGMGPMVTELEPLCTPVVTCTPGCTTYTSSFVFTYPEADSFPSCAAAHRKGSSSNEPSSDSLSSPTLLAL

Variants of: B1
Conditions: with esr2_mouse Esr2, O08537
Sequence of esr2_mouse Esr2, O08537 (O08537 whole entry): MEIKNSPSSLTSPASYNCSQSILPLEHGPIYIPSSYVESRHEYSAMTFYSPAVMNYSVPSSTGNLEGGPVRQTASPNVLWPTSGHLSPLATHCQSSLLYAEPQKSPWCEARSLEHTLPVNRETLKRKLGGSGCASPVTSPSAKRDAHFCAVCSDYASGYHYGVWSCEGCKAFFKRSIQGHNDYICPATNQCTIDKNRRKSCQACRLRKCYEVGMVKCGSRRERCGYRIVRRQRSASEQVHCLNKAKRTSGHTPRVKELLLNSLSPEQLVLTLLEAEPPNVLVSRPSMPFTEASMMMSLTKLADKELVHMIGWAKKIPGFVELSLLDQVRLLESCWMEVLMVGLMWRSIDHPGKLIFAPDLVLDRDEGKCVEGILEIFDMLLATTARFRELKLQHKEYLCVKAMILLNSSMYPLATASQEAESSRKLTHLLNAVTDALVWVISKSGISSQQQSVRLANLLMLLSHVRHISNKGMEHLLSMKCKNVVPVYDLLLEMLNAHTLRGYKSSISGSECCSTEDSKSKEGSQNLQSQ
With MMFSGFNADYEASSSRCSSASPAGDSLSYYHSPADSFSSMGSPVNTQDFCADLSVSSANFIPTVTAISTSPDLQWLVQPTLVSSVAPSQTRAPHPYGLPTQSAGAYARAGMVKTVSGGRAQSIGRRGKVEQLSPEEEEKRRIRRERNKMAAAKCRNRRRELTDTLQAETDQLEDEKSALQTEIANLLKEKEKLEFILAAHRPACKIPDDLGFPEEMSVASLDLTGGLPEASTPESEEAFTLPLLNDPEPKPSLEPVKSISNVELKAEPFDDFLFPASSRPSGSETSRSVPDVDLSGSFYAADWEPLHSNSLGMGPMVTELEPLCTPVVTCTPGCTTYTSSFVFTYPEADSFPSCAAAHRKGASSNEPSSDSLSSPTLLAL [S362A] the “effect of a mutation on the interaction” value was “decreasing interaction”. MMFSGFNADYEASSSRCSSASPAGDSLSYYHSPADSFSSMGSPVNTQDFCADLSVSSANFIPTVTAISTSPDLQWLVQPTLVSSVAPSQTRAPHPYGLPTQSAGAYARAGMVKTVSGGRAQSIGRRGKVEQLSPEEEEKRRIRRERNKMAAAKCRNRRRELTDTLQAETDQLEDEKSALQTEIANLLKEKEKLEFILAAHRPACKIPDDLGFPEEMSVASLDLTGGLPEASTPESEEAFTLPLLNDPEPKPSLEPVKSISNVELKAEPFDDFLFPASSRPSGSETSRSVPDVDLSGSFYAADWEPLHSNSLGMGPMVTELEPLCTPVVTCTPGCTTYTSSFVFTYPEADSFPSCAAAHRKGESSNEPSSDSLSSPTLLAL [S362E] was tested, and the “effect of a mutation on the interaction” value was “increasing interaction”.

From IntAct's records for PubMed 21565615
